Laboratory results: patent publication US6033823A, “Mutated penicillin G acylase genes” (priority 1994, dated 2000)

How the values were obtained:
Type in all cases: biochemical, Alcaligenes faecalis
[1] = substrate: CC1(C)S[C@@H]2[C@H](NC(=O)[C@H](N)c3ccccc3)C(=O)N2[C@H]1C(=O)O; test: Deacylation kinetics and phenylacetic acid product inhibition, mutant A:M143V; conditions: other: A:M143V; 20 mM NaH2PO4, pH 7.0, 37° C.; pH 7.0; 37.0 °C
Method: (§1) In order to determine enzymatic activity the acylases were incubated with substrate at room temperature in buffered solution. In case β-lactamase impurity was expected to be present in the enzyme preparations, 1.0 mM -lactamase inhibitor 6-bromo-penicillanic acid was added to the assay. The reactions were stopped by adding an excess PMSF. For some mutants which were less sensitive to PMSF inhibition, the reactions were stopped by adding 0.5 M HCl or 0.5 M acetic acid until the pH was between 3 and 4. When reactions were subsequently analysed by HPLC, the reactions were stopped by dilution with the correponding elution solvent (see table 1). In addition substrates were incubated under assay conditions in absence of enzyme. If necessary enzyme assays were corrected for non-enzymatic hydrolysis
(§2) The composition of the reaction mixtures was determined by high-performanceliquid chromatography (HPLC)(table 1). Concentrations were determined by using standards of known concentration.
(§3) In a continuous assay Penicillin G acylase was assayed spectro-fotometrically with the chromogenic substrate NIPAB [6-nitro-3-phenylacetamido-benzoic acid]. The liberation of 3-amino-6-nitrobenzoic acid was monitored by measuring the extinction at 405 nm in a Kontron 610 kinetic spectrofotometer. […] Initial rate measurements were performed with varying concentration of NIPAB. […]
(§4) Initial rate measurements were performed with excess substrate over the enzyme. Catalytic parameters were derived from least-squares fitting of the measured initial rates plotted for various substrate concentrations according to the Michaelis-Menten equation.
(§5) The complete conversion of NIPAB was followed as a funtion of time at 20, 50 and 100 μM NIPAB by following the increase in absorbtion at 405 nm. Products of this conversion are phenylacetic acid and 3-amino-6-nitrobenzoic acid. […] The progress curves of the deacylation of NIPAB could be fitted very well when product inhibition by phenylacetic acid was taken into account. The dissociation constants (usually referred to as inhibition constant Ki) for phenylacetic acid which could be derived from the progress curves is shown in table 11. For these mutants the yield of the conversion in a fixed time span is higher than for wild type. Alternatively, in order to obtain a certain yield a shorter conversion time is needed for the mutants.

[2] = substrate: CC1(C)S[C@@H]2[C@H](NC(=O)COc3ccccc3)C(=O)N2[C@H]1C(=O)O; test: as above; conditions: other: A:M143V; 40 mM NaH2PO4, pH 7.5, 37° C.; pH 7.5; 37.0 °C
Method: as §1, §2, §3, §4, §5

[3] = substrate: CC1(C)S[C@@H]2[C@H](NC(=O)[C@H](N)c3ccc(O)cc3)C(=O)N2[C@H]1C(=O)O; test: as above; conditions: other: A:M143V; 20 mM NaH2PO4, pH 7.0, 37° C.; pH 7.0; 37.0 °C
Method: as §1, §2, §3, §4, §5

[4] = substrate: CC1=C(C(=O)O)N2C(=O)[C@@H](NC(=O)Cc3ccccc3)[C@H]2SC1; test: as above; conditions: other: A:M143V; 20 mM NaH2PO4, pH 7.5, 37° C.; pH 7.5; 37.0 °C
Method: as §1, §2, §3, §4, §5

[5] = substrate: O=C(Cc1ccccc1)Nc1ccc([N+](=O)[O-])c(C(=O)O)c1; test: as above; conditions: other: A:M143V; 0.1M NaH2PO4, pH 7.5, 25° C.; pH 7.5; 25.0 °C
Method: as §1, §2, §3, §4, §5

[6] = substrate: CC1(C)S[C@@H]2[C@H](NC(=O)Cc3ccccc3)C(=O)N2[C@H]1C(=O)O; test: as above; conditions: other: A:M143V; 40 mM NaH2PO4, pH 7.5, 37° C.; pH 7.5; 37.0 °C
Method: as §1, §2, §3, §4, §5

[7] = substrate: NC(=O)[C@H](N)c1ccccc1; test: as above; conditions: other: A:M143V; 20 mM NaH2PO4, pH 7.0, 37° C.; pH 7.0; 37.0 °C
Method: as §1, §2, §3, §4, §5

[8] = substrate: CC1(C)S[C@@H]2[C@H](NC(=O)[C@H](N)c3ccccc3)C(=O)N2[C@H]1C(=O)O; test: Deacylation kinetics, mutant A:F147Y; conditions: other: A:F147Y; 20 mM NaH2PO4, pH 7.0, 37° C.; pH 7.0; 37.0 °C
Method: as §1, with “In” for “In order to determine enzymatic activity the acylases were incubated with substrate at room temperature in buffered solution. In”
as §2
(§6) In a continuous assay Penicillin G acylase was assayed spectro-fotometrically with the chromogenic substrate NIPAB [6-nitro-3-phenylacetamido-benzoic acid]. The liberation of 3-amino-6-nitrobenzoic acid was monitored by measuring the extinction at 405 nm in a Kontron 610 kinetic spectrofotometer. […] Initial rate measurements were performed with varying concentration of NIPAB.
(§7) The kinetics of enzymatic hydrolysis of PenG, PenV, CefG were also studied by alkaline titration (0, OlM KOH), using a Radiometer pH-stat. All experiments were carried out in a buffer free medium.
as §4

[9] = substrate: CC1(C)S[C@@H]2[C@H](NC(=O)COc3ccccc3)C(=O)N2[C@H]1C(=O)O; test: Deacylation kinetics, mutant A:F147Y; conditions: other: A:F147Y; 40 mM NaH2PO4, pH 7.5, 37° C.; pH 7.5; 37.0 °C
Method: as §1, with “In” for “In order to determine enzymatic activity the acylases were incubated with substrate at room temperature in buffered solution. In”
as §2, §6, §7, §4

[10] = substrate: CC1(C)S[C@@H]2[C@H](NC(=O)[C@H](N)c3ccc(O)cc3)C(=O)N2[C@H]1C(=O)O; test: Deacylation kinetics, mutant A:F147Y; conditions: other: A:F147Y; 20 mM NaH2PO4, pH 7.0, 37° C.; pH 7.0; 37.0 °C
Method: as §1, with “In” for “In order to determine enzymatic activity the acylases were incubated with substrate at room temperature in buffered solution. In”
as §2, §6, §7, §4

[11] = substrate: CC1=C(C(=O)O)N2C(=O)[C@@H](NC(=O)Cc3ccccc3)[C@H]2SC1; test: Deacylation kinetics, mutant A:F147Y; conditions: other: A:F147Y; 20 mM NaH2PO4, pH 7.5, 37° C.; pH 7.5; 37.0 °C
Method: as §1, with “In” for “In order to determine enzymatic activity the acylases were incubated with substrate at room temperature in buffered solution. In”
as §2, §6, §7, §4

[12] = substrate: O=C(Cc1ccccc1)Nc1ccc([N+](=O)[O-])c(C(=O)O)c1; test: Deacylation kinetics, mutant A:F147Y; conditions: other: A:F147Y; 0.1M NaH2PO4, pH 7.5, 25° C.; pH 7.5; 25.0 °C
Method: as §1, with “In” for “In order to determine enzymatic activity the acylases were incubated with substrate at room temperature in buffered solution. In”
as §2, §6, §7, §4

[13] = substrate: CC1(C)S[C@@H]2[C@H](NC(=O)Cc3ccccc3)C(=O)N2[C@H]1C(=O)O; test: Deacylation kinetics, mutant A:F147Y; conditions: other: A:F147Y; 40 mM NaH2PO4, pH 7.5, 37° C.; pH 7.5; 37.0 °C
Method: as §1, with “In” for “In order to determine enzymatic activity the acylases were incubated with substrate at room temperature in buffered solution. In”
as §2, §6, §7, §4

[14] = substrate: NC(=O)[C@H](N)c1ccccc1; test: Deacylation kinetics, mutant A:F147Y; conditions: other: A:F147Y; 20 mM NaH2PO4, pH 7.0, 37° C.; pH 7.0; 37.0 °C
Method: as §1, with “In” for “In order to determine enzymatic activity the acylases were incubated with substrate at room temperature in buffered solution. In”
as §2, §6, §7, §4

B1: Alcaligenes faecalis Penicillin G acylase mutant A:M143V (Alcaligenes faecalis; M169V) (protein)
chain 1: QVQSVEVMRDSYGVPHVFADSHYGLYYGYGYAVAQDRLFQMDMARRSFVGTTAAVLGPGEQDAYVKYDMQVRQNFTPASIQRQIAALSKDERDIFRGYADGYNAYLEQVRRRPELLPKEYVDFDFQPEPLTDFDVVMIWVGSVANRFSDTNLEVTALAMRQSLEKQHGPERGRALFDELLWINDTTAPTTVPAPAAEHKPQA
chain 2: SNLWSTRPERVQEGSTVLINGPQFGWYNPAYTYGIGLHGAGFDVVGNTPFAYPIVLFGTNSEIAWGATAGPQDVVDIYQEKLNPSRADQYWFNNAWRTMEQRKERIQVRGQADREMTIWRTVHGPVMQFDYDQGAAYSKKRSWDGYEVQSLLAWLNVAKARNWTEFLDQASKMAISINWYYADKHGNIGYVSPAFLPQRPADQDIRVPAKGDGSMEWLGIKSFDAIPKAYNPPQGYLVNWNNKPAPDKTNTDTYYWTYGDRMNELVSQYQQKDLFSVQEIWEFNQKASYSDVNWRYFRPHLEKLAQQLPADDSSKAALTMLLAWDGMEQDQGGQNAGPARVLFKTWLEEMYKQVLMPVVPESHRAMYSQTGFATQQGPNPGSINLSMGTKVLLRALVLEAHPDPKRVNVFGERSSQEIMHTALQNAQARLSQEQGAQMARWTMPTSVHRFSDKNFTGTPQTMPGNTFAFTGYQNRGTENNRVVFDAKGVEFCDAMPPGQSGFTDRNGVRSPHYEDQLKLYENFECKTMDVTHADIRRNAQSSTMLLIQPQP
notes: alpha 202 aa, beta 551 aa; recombinant, E. coli host
- Km [1]: 1500 µM
- Vmax [1]: 23.0 U/mg
- Km [2]: 31 µM
- Vmax [2]: 10.3 U/mg
- Km [3]: 21000 µM
- Vmax [3]: .2 U/mg
- Km [4]: 7 µM
- Vmax [4]: 56.4 U/mg
- Km [5]: 17 µM
- Vmax [5]: 35.7 U/mg
- Km [6]: 6 µM
- Vmax [6]: 40.5 U/mg
- Km [7]: 35000 µM
- Vmax [7]: 22.2 U/mg

B2: Alcaligenes faecalis Penicillin G acylase mutant A:F147Y (Alcaligenes faecalis; F173Y) (protein)
chain 1: QVQSVEVMRDSYGVPHVFADSHYGLYYGYGYAVAQDRLFQMDMARRSFVGTTAAVLGPGEQDAYVKYDMQVRQNFTPASIQRQIAALSKDERDIFRGYADGYNAYLEQVRRRPELLPKEYVDFDFQPEPLTDFDVVMIWVGSMANRYSDTNLEVTALAMRQSLEKQHGPERGRALFDELLWINDTTAPTTVPAPAAEHKPQA
chain 2: SNLWSTRPERVQEGSTVLINGPQFGWYNPAYTYGIGLHGAGFDVVGNTPFAYPIVLFGTNSEIAWGATAGPQDVVDIYQEKLNPSRADQYWFNNAWRTMEQRKERIQVRGQADREMTIWRTVHGPVMQFDYDQGAAYSKKRSWDGYEVQSLLAWLNVAKARNWTEFLDQASKMAISINWYYADKHGNIGYVSPAFLPQRPADQDIRVPAKGDGSMEWLGIKSFDAIPKAYNPPQGYLVNWNNKPAPDKTNTDTYYWTYGDRMNELVSQYQQKDLFSVQEIWEFNQKASYSDVNWRYFRPHLEKLAQQLPADDSSKAALTMLLAWDGMEQDQGGQNAGPARVLFKTWLEEMYKQVLMPVVPESHRAMYSQTGFATQQGPNPGSINLSMGTKVLLRALVLEAHPDPKRVNVFGERSSQEIMHTALQNAQARLSQEQGAQMARWTMPTSVHRFSDKNFTGTPQTMPGNTFAFTGYQNRGTENNRVVFDAKGVEFCDAMPPGQSGFTDRNGVRSPHYEDQLKLYENFECKTMDVTHADIRRNAQSSTMLLIQPQP
notes: as for B1
- Km [8]: 2600 µM
- Vmax [8]: 13.6 U/mg
- Km [9]: 51 µM
- Vmax [9]: 0.8 U/mg
- Km [10]: 19000 µM
- Vmax [10]: 0.1 U/mg
- Km [11]: 6 µM
- Vmax [11]: 4.0 U/mg
- Km [12]: 5 µM
- Vmax [12]: 18.0 U/mg
- Km [13]: 4 µM
- Vmax [13]: 5.9 U/mg
- Km [14]: 1700 µM
- Vmax [14]: 32.7 U/mg
